Key:
[1] = target: the molecule itself; test: crystal structure; DeoR co-crystallised with the 18 bp DNA duplex OL18 (left half-operator); hanging drop, 18°C; two dimers in the asymmetric unit, tetramer formed with a symmetry-related dimer; 3.7 Å
[2] = target: the molecule itself; test: cryo-EM 2D classification; purified CggR-OLR complex (0.86 mg/ml) with 2 mM FBP, about 15 min on ice
[3] = target: the molecule itself; test: cryo-EM structure; CggR with the 45 bp operator DNA OLR (molar ratio 4:1.5), SEC-purified complex, 0.86 mg/ml; C2 symmetry, 4.3 Å
[4] = target: T1, DeoR (Bacillus subtilis, UniProt P39140 2-313); test: MST; DeoR 4 uM; 50 mM MgCl2; Hill coefficient slightly below 1; MST: 50 mM Tris-HCl pH 7.5, 150 mM NaCl, 50 mM MgCl2, 2 mM EDTA, 0.02% beta-mercaptoethanol; DeoR SEC mixes incubated 30 min on ice; CggR storage 20 mM Tris-HCl pH 7.5, 100 mM NaCl, 0.02% beta-mercaptoethanol, complex formed 30 min on ice; settings: protein: recombinant; tags: N-terminal GIDPFT cloning artifact after TEV cleavage (His6-V5 removed); chain copies: 4; blunt
T1 sequence: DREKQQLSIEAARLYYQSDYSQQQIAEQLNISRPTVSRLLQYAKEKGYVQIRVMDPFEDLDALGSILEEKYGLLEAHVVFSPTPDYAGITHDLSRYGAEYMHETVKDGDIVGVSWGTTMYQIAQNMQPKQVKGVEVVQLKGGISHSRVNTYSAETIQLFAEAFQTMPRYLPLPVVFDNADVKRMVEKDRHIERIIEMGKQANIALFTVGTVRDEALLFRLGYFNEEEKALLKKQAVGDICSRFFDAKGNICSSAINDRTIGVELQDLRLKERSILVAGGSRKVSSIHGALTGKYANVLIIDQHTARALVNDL

[5] = target: CggR (Bacillus subtilis, UniProt O32253 1-340); test: cryo-EM; 4.3 A; tetramer, no effector; MST: 50 mM Tris-HCl pH 7.5, 150 mM NaCl, 50 mM MgCl2, 2 mM EDTA, 0.02% beta-mercaptoethanol; DeoR SEC mixes incubated 30 min on ice; CggR storage 20 mM Tris-HCl pH 7.5, 100 mM NaCl, 0.02% beta-mercaptoethanol, complex formed 30 min on ice; settings: protein: recombinant; tags: N-terminal GIDPFT cloning artifact after TEV cleavage (His6-V5 removed); chain copies: 4; blunt
[6] = target: T1, DeoR; test: SEC; about 56 uM DeoR, protein:DNA 4:1; MST: 50 mM Tris-HCl pH 7.5, 150 mM NaCl, 50 mM MgCl2, 2 mM EDTA, 0.02% beta-mercaptoethanol; DeoR SEC mixes incubated 30 min on ice; CggR storage 20 mM Tris-HCl pH 7.5, 100 mM NaCl, 0.02% beta-mercaptoethanol, complex formed 30 min on ice; settings: protein: recombinant; tags: N-terminal GIDPFT cloning artifact after TEV cleavage (His6-V5 removed); chain copies: 4; blunt
[7] = target: T1, DeoR; test: SEC; about 56 uM DeoR, protein:DNA 2:1; MST: 50 mM Tris-HCl pH 7.5, 150 mM NaCl, 50 mM MgCl2, 2 mM EDTA, 0.02% beta-mercaptoethanol; DeoR SEC mixes incubated 30 min on ice; CggR storage 20 mM Tris-HCl pH 7.5, 100 mM NaCl, 0.02% beta-mercaptoethanol, complex formed 30 min on ice; settings: protein: recombinant; tags: N-terminal GIDPFT cloning artifact after TEV cleavage (His6-V5 removed); chain copies: 4; blunt
[8] = target: T1, DeoR; test: X-ray crystallography; 3.7 A; protein about 8 mg/ml; 75 mM CaCl2, 25 mM MgCl2; MST: 50 mM Tris-HCl pH 7.5, 150 mM NaCl, 50 mM MgCl2, 2 mM EDTA, 0.02% beta-mercaptoethanol; DeoR SEC mixes incubated 30 min on ice; CggR storage 20 mM Tris-HCl pH 7.5, 100 mM NaCl, 0.02% beta-mercaptoethanol, complex formed 30 min on ice; settings: protein: recombinant; tags: N-terminal GIDPFT cloning artifact after TEV cleavage (His6-V5 removed); chain copies: 4; blunt

B1: DeoR from Bacillus subtilis (deoxyribonucleoside regulator, SorC/DeoR subfamily repressor) (natural protein)
chain: GIDPFTDREKQQLSIEAARLYYQSDYSQQQIAEQLNISRPTVSRLLQYAKEKGYVQIRVMDPFEDLDALGSILEEKYGLLEAHVVFSPTPDYAGITHDLSRYGAEYMHETVKDGDIVGVSWGTTMYQIAQNMQPKQVKGVEVVQLKGGISHSRVNTYSAETIQLFAEAFQTMPRYLPLPVVFDNADVKRMVEKDRHIERIIEMGKQANIALFTVGTVRDEALLFRLGYFNEEEKALLKKQAVGDICSRFFDAKGNICSSAINDRTIGVELQDLRLKERSILVAGGSRKVSSIHGALTGKYANVLIIDQHTARALVNDL
notes: cloning artifact that remains at the N-terminus after TEV PR cleavage; DBD residues 1-55, EBD residues 56-313; in the crystal model residue T1 is the last residue of the cloning artifact; also called apo-DeoR; source: E. coli BL21 (DE3), purified (Ni-NTA, TEV PR cleavage, reverse Ni-NTA); LB broth for structural studies, minimal medium for mass photometry and SEC; not shown: His6, N-terminal, …
In the case of B1, the “stoichiometry N” value [1] is reported as 4.

B2: CggR from Bacillus subtilis (central glycolytic genes regulator, SorC/CggR subfamily repressor) (natural protein)
chain: GIDPFTMNQLIQAQKKLLPDLLLVMQKRFEILQYIRLTEPIGRRSLSASLGISERVLRGEVQFLKEQNLVDIKTNGMTLTEEGYELLSVLEDTMKDVLGLTLLEKTLKERLNLKDAIIVSGDSDQSPWVKKEMGRAAVACMKKRFSGKNIVAVTGGTTIEAVAEMMTPDSKNRELLFVPARGGLGEDVKNQANTICAHMAEKASGTYRLLFVPGQLSQGAYSSIIEEPSVKEVLNTIKSASMLVHGIGEAKTMAQRRNTPLEDLKKIDDNDAVTEAFGYYFNADGEVVHKVHSVGMQLDDIDAIPDIIAVAGGSSKAEAIEAYFKKPRNTVLVTDEGAAKKLLRDE
notes: cloning artifact that remains at the N-terminus after TEV PR cleavage; DBD and EBD connected by residues 92-94; also called apo-CggR; source: E. coli BL21 (DE3), purified (Ni-NTA, hydroxyapatite, TEV PR cleavage, reverse Ni-NTA, Mono-Q ion exchange); not shown: His6, N-terminal, cleaved
With B2 the “stoichiometry N” value [2] was 2 and the “stoichiometry N” value [3] was 4.

B3: OLR65 (dsDNA)
DNA 1: GTGACACGTTCAAACCTTTCATTGAACAAAATTTCAATTACCAATTTACATATGTTCAAAAGTCG
DNA 2: CGACTTTTGAACATATGTAAATTGGTAATTGAAATTTTGTTCAATGAAAGGTTTGAACGTGTCAC
B3 was tested, and the Kd [4] was about 30 µM.

B4: CggR OLR (45 bp) (dsDNA)
DNA 1: TGACGGGACGTTTTTTGTCATAGCGGGACATATAATGTCCAGCAA
DNA 2: TTGCTGGACATTATATGTCCCGCTATGACAAAAAACGTCCCGTCA
B4: binds [5].

B5: OLR39 (dsDNA)
DNA 1: ATTGAACAAAATTTCAATTACCAATTTACATATGTTCAA
DNA 2: TTGAACATATGTAAATTGGTAATTGAAATTTTGTTCAAT
B5: binds [6].

B6: OL44 (dsDNA)
DNA 1: CACGTTCAAACCTTTCATTGAACAAAATTTCAATTACCAATTTACA
DNA 2: TGTAAATTGGTAATTGAAATTTTGTTCAATGAAAGGTTTGAACGTG
B6: no binding [6].

B7: OR24 (dsDNA)
DNA 1: TACCAATTTACATATGTTCAAAAG
DNA 2: CTTTTGAACATATGTAAATTGGTA
B7: no binding [7].

B8: OL18 (dsDNA)
DNA 1: ATTGAACAAAATTTCAAT
DNA 2: ATTGAAATTTTGTTCAAT
B8: binds [8].
